In patent publication US20230020729A1 (Memorial Sloan Kettering, published 2023):

T1: human Fc Receptor-Like 5 (FcRL5), full length, expressed on cells (human, UniProt Q96RD9 16-977)
T1 construct: also called CD307e; IRTA2
T1 sequence: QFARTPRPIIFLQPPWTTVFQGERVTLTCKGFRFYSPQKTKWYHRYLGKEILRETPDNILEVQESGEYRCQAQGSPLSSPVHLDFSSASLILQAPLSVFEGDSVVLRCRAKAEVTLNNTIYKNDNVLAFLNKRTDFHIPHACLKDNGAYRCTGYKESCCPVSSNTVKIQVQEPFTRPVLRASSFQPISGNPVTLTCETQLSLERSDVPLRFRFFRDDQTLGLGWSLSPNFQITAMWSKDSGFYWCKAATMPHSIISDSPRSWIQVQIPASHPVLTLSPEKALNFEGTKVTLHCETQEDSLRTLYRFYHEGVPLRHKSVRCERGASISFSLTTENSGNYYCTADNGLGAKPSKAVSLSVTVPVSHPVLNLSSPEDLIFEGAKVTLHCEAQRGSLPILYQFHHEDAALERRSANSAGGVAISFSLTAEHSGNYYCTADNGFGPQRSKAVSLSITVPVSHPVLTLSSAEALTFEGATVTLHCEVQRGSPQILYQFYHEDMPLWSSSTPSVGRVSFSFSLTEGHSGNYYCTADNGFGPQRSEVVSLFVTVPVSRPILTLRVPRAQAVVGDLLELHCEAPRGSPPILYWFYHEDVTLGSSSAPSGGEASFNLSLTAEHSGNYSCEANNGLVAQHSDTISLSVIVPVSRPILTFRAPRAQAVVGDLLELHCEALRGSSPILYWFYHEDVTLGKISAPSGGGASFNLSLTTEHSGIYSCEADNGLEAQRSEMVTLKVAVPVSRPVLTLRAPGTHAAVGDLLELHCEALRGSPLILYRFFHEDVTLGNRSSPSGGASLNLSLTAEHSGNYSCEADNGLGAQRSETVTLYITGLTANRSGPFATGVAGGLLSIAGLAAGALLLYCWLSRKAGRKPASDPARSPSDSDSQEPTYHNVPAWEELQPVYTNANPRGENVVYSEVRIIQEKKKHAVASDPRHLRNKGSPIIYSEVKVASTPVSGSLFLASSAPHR

B1: ET200-005 scFv (scFv)
scFv: QPVLTQPPSVSVVPGKTARITCGGKNIGSKSVHWYQQKPGQAPVVVIHYDSDRPSGIPERFSGSNSGNTATLTISRVEAGDEADYYCQVWDSSSDHPYVFGTGTKVTVLGSRGGGGSGGGGSGGGGSLEMAQVQLVQSGAEVKKPGASVKVSCKASGYTFTNYGISWVRQAPGQGLEWMGWISAYNGNTNYAHKLQGRVTMTTDTSTSTANMELRSLRPDDTAVYYCARSYFGSHDYWGQGTLVTVSS
notes: VL-linker-VH; screened as scFv phage clone
B2: ET200-118 scFv (scFv)
scFv: QAVLTQPASVSGSPGQSITISCTGTSSDVGGYNYVSWYQQHPGKAPKLMIYEVSNRPSGVSNRFSGSKSGNTASLTISGLQAEDEADYYCSSYTSSSTPYVFGAGTKVTVLGSRGGGGSGGGGSGGGGSLEMAEVQLVESGGGLVQPGRSLRLSCAASGFTFDDYAMHWVRQAPGKGLEWVSGISWNSGSIGYADSVKGRFTISRDNAKNSLYLQMNSLRAEDTALYYCAKARWTAVASDHHFDYWGQGTLVTVSS
notes: as for B1
B3: ET200-110 scFv (scFv)
scFv: QSVLTQPPSASGTPGQRVTISCSGSSSNIGTNGVNWFQQFPGTAPKLLIYTNDQRPSGVPDRFSGSKSGTSASLAISGLQSADEADYYCAVWDHSLNGPVFGGGTKLTVLGSRGGGGSGGGGSGGGGSLEMAQVQLVQSGAEVKKPGSSVKVSCKASGGTFSSYAISWVRQAPGQGLEWMGGIIPIFGTANYAQKFQGRVTITADESTSTAYMELSSLRSEDTAVYYCARGAGFDAFDIWGQGTMVTVSS
notes: as for B1
B4: ET200-008 scFv (scFv)
scFv: QSALTQPASVSGSPGQSITISCTGTSSDVGGYNYVSWYQQHPGKAPKLMIYDVSNRPSGVSNRFSGSKSGNTASLTISGLQAEDEADYYCSSYTSSSTSKVFGGGTKLTVLGSRGGGGSGGGGSGGGGSLEMAEVQLVESGGGVVRPGGSLRLSCAASGFTFGDYGMSWVRQAPGKGLEWVSGINWNGGSTGYADSVKGRFTISRDNAKNSLYLQMNSLRAEDTAVYYCARSKYNFHVYYDYWGQGTLVTVSS
notes: as for B1
B5: ET200-112 scFv (scFv)
scFv: QAVLTQPPSASGTPGQRVTISCSGSSSNIGSNTVNWYQQLPGTAPKLLMYSNDQRPSGVPDRFSGSKSGTSASLAISGLQSEDEADYYCAAWDDSLNGYVFAAGTQLTVLSSRGGGGSGGGGSGGGGSLEMAQVQLQQWGAGLLKPSETLSLTCAVYGGSFSGYYWSWIRQPPGKGLEWIGEINHSGSTNYNPSLKSRVTISVDTSKNQFSLKLSSVTAADTAVYYCAREGLDAFDIWGQGTMVTVSS
notes: as for B1
B6: ET200-125 scFv (scFv)
scFv: NFMLTQPHAVSESPGKTVTISCTRSSGSIASNYVQWYQQRPGSSPRTVIYEDNQRPSGVPGRFSGSIDSSSNSASLTISGLKTEDEADYYCQSYDSTSVLFGGGTKLTVLGSRGGGGSGGGGSGGGGSLEMAEVQLVQSGAEVKKPGSSVKVSCKASGGTFSSNSLSWVRQAPGQGLEWMGRIFPILGITNYAQKFQGRVTITADKSTSTAYMELSSLRSEDTAVYYCARGNYQWYDAFDIWGQGTMVTVSS
notes: as for B1
B7: ET200-009 scFv (scFv)
scFv: QSVLTQPPSASGTPGQTVTISCSGSNSNIGSNYVYWYQQLPGTAPKLLIYRNNQRPSGVPDRFSGSKSGTSASLAISGLRSEDEADYYCAAWDDSLSAYVFGTGTKVTVLGSRGGGGSGGGGSGGGGSLEMAQVQLVQSGAEVKKPGASVKVSCKASGYTFTSYGISWVRQAPGQGLEWMGWISAYNGNTNYAQKLQGRVTMTTDTSTSTAYMELRSLRSDDTAVYYCARSSGNMVSWKDMWGQGTLVTVSS
notes: as for B1
B8: ET200-108 scFv (scFv)
scFv: QSVLTQPPSVSAPPGQKVTISCSGSSSNIGNNYVSWYQQFPGTAPKLLIYDNNKRPSGISDRFSGSKSGTSATLGIAGLQTGDEADYYCGTWDTSLSGFYVFGSGTKVTVLGSRGGGGSGGGGSGGGGSLEMAEVQLVQSGAEVKKPGASVKVSCKASGYTFTSYTISWVRQAPGQGLEWMGWISTYNGLTNYAQNLQGRVTMTTDTFTTTAYMELRSLRSDDTAVYYCVREGSPDYGDFASFDYWGQGTLVTVSS
notes: as for B1
B9: ET200-011 scFv (scFv)
scFv: QSVVTQPPSVSAAPGQRVTISCSGSSSNISIYDVSWYQQLPGTAPKLLIYGNNKRPSGIADRFSGSTSGTSATLGITGLQTGDEADYYCGTWDDSLSGGVFGGGTKLTVLGSRGGGGSGGGGSGGGGSLEMAQMQLVQSGAEVKKPGSSVKVSCEASGGTLSSYAINWVRQAPGQGLEWMGGIIPMFGTAHYAQKFQGRVTITADESTKTAYMELSSLRSEDTAVYYCARGVHYASFDHWGQGTLVTVSS
notes: as for B1
B10: ET200-010 scFv (scFv)
scFv: QSALTQPASVSGSPGQSITISCTGTSSDVGGYNSVSWYQQHPGKAPRLMIYDVSNRPSGVSNRFSGSKSGNTASLTISGLQAEDEADYYCSSYTSSSTPLVFGTGTKVTVLGSRGGGGSGGGGSGGGGSLEMAQVQLVQSGAEVKKPGASVKVSCKASGYTFTSYGISWVRQAPGQGLEWMGWISAYNGNTNYAQKLQGRVTMTTDTSTSTAYMELRSLRSDDTAVYYCARGAVAYHDWGQGTLVTVSS
notes: as for B1
B11: ET200-109 scFv (scFv)
scFv: LPVLTQPPSASATPGQRVTISCSGTTSNIGSNTVHWYQQLPGTAPKLLIYNNNQRPSGVPDRFSGSKSGTSASLAISGLRSEDEATYSCATWDDSLSGVVFGGGTKLTVLGSRGGGGSGGGGSGGGGSLEMAEVQLVQSGAEVKKPGSSVKVSCKASGGTFSSYAISWVRQAPGQGLEWMGGIIPIFGTANYAQKFQGRVTITADESTSTAYMELSSLRSEDTAVYYCARDPAYGDYEYDAFDIWGQGTMVTVSS
notes: as for B1
B12: ET200-113 scFv (scFv)
scFv: QSVVTQPPSVSAAPGQKVTISCSGSSSNIGNNYVSWYQQLPGTAPKLLIYDNNKRPSGIPDRFSGSKSGTSATLGITGLQTGDEADYYCGTWDSSLSAAYVFGTGTKVTVLGSRGGGGSGGGGSGGGGSLEMAQVQLVQSGAEVKKPGASVKVSCKASGYSFTSYTISWVRQAPGQGLEWMGWVSTYNGLRNYAQNLQGRVTMTTDTLTTTAYMELRSLRSDDTAVYYCVREGSPDYGDFAAFDYWGQGTLVTVSS
notes: as for B1
B13: ET200-115 scFv (scFv)
scFv: QSVLTQPPSVSGAPGQRVTISCTGSSSNIGARYDVHWYQQLPGTAPRLLISANYDRPSGVPDRFSGSKSGTSASLAITGLQAEDEADYYCQSYDSSVSAWVFGGGTKVTVLGSRGGGGSGGGGSGGGGSLEMAEVQLVQSGAEVKEPGASVRISCQASGYNFISYYMHWVRQAPGQGLEWMGTINPGSGETDYSQKLQGRVTMTRDPSTGTFDMGLSSLTSGDTAVYYCATGLIRGASDAFNIWGRGTMVTVSS
notes: as for B1
B14: ET200-124 scFv (scFv)
scFv: SYVLTQPPSVSVAPGKTARISCGGNDIGSKSVFWYQQRPGQAPVLVVYDDSDRPSGLPERFSGFNSGNTATLTISRVEAGDEADYYCQVWDSSSDHYVFGTGTKVTVLGSRGGGGSGGGGSGGGGSLEMAQVQLVESGGGLVQPGRSLRLSCAASGFTFDDYAMHWVRQAPGKGLEWVSGISWNSGSIGYADSVKGRFTISRDNAKNSLYLQMNSLRAEDTALYYCAKDITYGSGSYGAFDIWGQGTMVTVSS
notes: as for B1
B15: ET200-123 scFv (scFv)
scFv: QAVLTQPPSASGTPGQRVTISCSGSSSNIGSNTVNWYQQLPGTAPKLLMYNNDQRPSGVPDRFSGSKSGTSASLAISGLQSEDEADYYCAAWDDSLNGYVFGPGTKVTVLGSRGGGGSGGGGSGGGGSLEMAQVQLVESGAEVKKPGASVKVSCKASGYTFTSYGISWVRQAPGQGLEWMGWISAYNGNTNYAQKLQGRVTMTTDTSTSTAYMELRSLRSDDTAVYYCARDLSRGANPHYYYYYGMDVWGQGTTVTVSS
notes: as for B1
B16: ET200-116 scFv (scFv)
scFv: QPVLTQPPSVSVSPGQTAAIPCSGDKLGDKFASWYQQKPGQSPVLVIYQDTKRPSGIPERFSGSNSGNTATLTISGTQAMDEADYYCQTWASGIVVFGGGTKLTVLGSRGGGGSGGGGSGGGGSLEMAQVQLQQSGPGLVKPSQTLSLTCAISGDSVSSNSAAWNWIRQSPSRGLEWLGRTYYRSKWYNDYAVSVKSRITINPDTSKNQFSLQLNSVTPEDTAVYYCARERSGWKGFDYWGQGTLVTVSS
notes: as for B1
B17: ET200-121 scFv (scFv)
scFv: QSVLTQPPSVSGAPGQRVTVSCTGSRSNIGAGYDVHWYQQLPGTAPKLLIYGNSNRPPGVPDRFSGSKSGTSASLVITGLQAEDAADYYCQSYDNTVRESPYVFGTGTKVTVLGSRGGGGSGGGGSGGGGSLEMAEVQLVQSGAEVKKPGASVKVSCKVSGYTLTELSMHWVRQAPGKGLEWMGGFDPEDGETIYAQKFQGRVTMTEDTSTDTAYMELSSLRSEDTAVYYCATESNLVSRHYYYYGMDVWGQGTTVTVSS
notes: as for B1

Target: T1, human Fc Receptor-Like 5 (FcRL5), full …
Experiment: scFv phage: ELISA on His-tag FcRL5, flow cytometry on FcRL5-overexpressing 3T3 and Raji cells

| Binder | binding result |
| --- | --- |
| B1 | binds |
| B2 | binds |
| B3 | binds |
| B4 | binds |
| B5 | binds |
| B6 | binds |
| B7 | binds |
| B8 | binds |
| B9 | binds |
| B10 | binds |
| B11 | binds |
| B12 | binds |
| B13 | binds |
| B14 | binds |
| B15 | binds |
| B16 | binds |
| B17 | binds |
